According to US11851680B2, “Genetically-modified immune cells comprising a microRNA-adapted shRNA (shRNAmiR)” (Precision Biosciences, Inc., priority 2019, dated 2023):

Experiments:
[1] = system: SMAD2/3; assay: Phosphorylated SMAD2/3 after TGFβ1 stimulation by flow cytometry; format: cell-based, human; conditions: BCMA CAR T cells, TGFβ1 500 ng/ml
Source text: T cells electroporated with TRC1-2L.1592 were immediately transduced with AAV72112 (encoding the anti-CD19 FMC63 CAR described in Example 1 and a TGFBR2-specific shRNAmiR inserted after the CAR stop codon and before a polyA sequence) or AAV7206 (encoding a control FMC63 CAR with no RNAi). Following six days of culture, CD3-CAR+ cells were purified by FACS using methods described above. In addition, TGFβRII-cells from TGF1-2L.296-edited cultures were sorted in this manner. Sorted cells were rested in serum free medium overnight before being stimulated with 500 ng/ml of recombinant human TGFβ1, the ligand for TGFBR2 (PeproTech). Thirty minutes following TGFβ1 addition, cells were harvested and immediately prepared for staining using Phos-Flow lyse-fix buffer and Phos-Flow Fix-Perm buffer III (BD Biosciences) according to the manufacturer's instructions. Fixed cells were stained with anti-pSMAD2/3-PE (BD Biosciences) and data were acquired on a Beckman-Coulter CytoFLEX-LX. […]
BCMA CAR T cells having knock out of TGFBR2 were prepared with the TGF 1-2L.296 meganuclease and cells having knock down of TGFBR2 were prepared with the 72112 TGFBR2 shRNAmiR as described above. The respective BCMA CAR T cell groups were treated with TGFβ1 (500 ng/ml) and all cell groups were harvested and analyzed as described above. […]

[2] = system: TGFBR2; assay: TGFBR2 surface expression (knockdown or knockout) on T cells by flow cytometry; format: cell-based, human; conditions: for TGFBR2 knockout frequency, percent of cells in the culture: 6 days after electroporation of nuclease RNA, vs mock nucleofected
Method: Nucleofection was carried out in the presence of 2 μg/1×10^6 cells of linearized DNA encoding the CAR and one of the candidate TGFBR2 shRNAmiRs.
Cells were analyzed for TGFBR2 expression at d7, 10, and 14 post-nucleofection using the anti-TGFBR2 antibody MM0056-4F14 (Abcam), and an anti-mouse kappa light chain secondary antibody conjugated to PE (BioLegend). CAR+ cells were identified using anti-FMC63-Alx647, produced in house. The mean fluorescence intensity (MFI) of TGFBR2 signal on the CAR+ was compared to that on the CAR− cells and a percent knockdown was calculated. The frequency of CAR+ events was consistent across the different constructs, ranging from 4.9% to 6.7% (FIG. 12).
Electroporated cells were cultured for 6 days in complete X-VIVO15 medium supplemented with 30 ng/ml IL-2 prior to an analysis of editing efficiency. This was achieved by staining cells with an anti-TGFβRII antibody (Abcam clone MM0056-4F14) followed by anti-mouse IgG κ light chain conjugated to PE (BioLegend clone RMK45). Data were acquired on a Beckman-Coulter CytoFLEX-S or LX.
Mock nucleofected T cells were stained with the anti-TGFβRII antibody and the secondary antibody or the secondary antibody alone to serve as positive and negative controls, respectively, for surface detection of TGFβRII.
A further study was conducted in which the activity of CAR T cells was assessed following various alterations to the TGFβ pathway. […] In some variants, a sequence encoding a shRNAmiR was also introduced at the TRC 1-2 site in the same cassette as the CAR (positioned between the CAR stop codon and a polyA sequence). In one variant, the shRNAmiR was a TGFBR2-specific shRNAmiR (construct 72154) while in another variant a shRNAmiR that is irrelevant to TGFβ function (targeting B2M—construct 72155) was introduced. A third variant of CAR T cells was produced using construct 72155, but they were edited at the TGFBR2 locus using the TGF1-2L296 nuclease described above in order to knockout the TGFBR2 gene. CAR T cells in the TGFBR2 KO group contained 60% KO.

B1: TGF 1-2L.296: engineered meganuclease targeting the TGFBR2 gene (SEQ ID NO: 65) (protein)
chain: MNTKYNKEFLLYLAGFVDGDGSIYACITPKQRSKFKHSLRLRFTVGQKTQRRWFLDKLVDEIGVGYVLDGGGVSEYRLSEIKPLHNFLTQLQPFLKLKQKQANLVLKIIEQLPSAKESPDKFLEVCTWVDQIAALNDSKTRKTTSETVRAVLDSLPGSVGGLSPSQASSATSSASSSPGSGISEALRAGAGSGTGYNKEFLLYLAGFVDGDGSIYACIEPDQSRKFKHTLRLYFEVGQKTQRRWFLDKLVDEIGVGYVYDRGSVSNYRLSEIKPLHNFLTQLQPFLKLKQKQANLVLKIIEQLPSAKESPDKFLEVCTWVDQIAALNDSKTRKTTSETVRAVLDSLSEKKKSSP
[1]
  pSMAD2/3 level after TGFβ1: decreased pSMAD2/3 to levels comparable to, or lower than, the untreated BCMA CAR T cell control
[2]
  TGFBR2 knockout frequency, percent of cells in the culture: 69%
[2]; BCMA CAR T cells, construct 72155 plus nuclease
  TGFBR2 KO in CAR T cell group: 60%

B2: TGF 1-2x.5: engineered meganuclease targeting the TGFBR2 gene (SEQ ID NO: 64) (protein)
chain: MNTKYNKEFLLYLAGFVDGDGSIYACIEPDQSRKFKHTLRLYFEVGQKTQRRWFLDKLVDEIGVGYVYDRGSVSNYRLSEIKPLHNFLTQLQPFLKLKQKQANLVLKIIEQLPSAKESPDKFLEVCTWVDQIAALNDSKTRKTTSETVRAVLDSLPGSVGGLSPSQASSAASSASSSPGSGISEALRAGAGSGTGYNKEFLLYLAGFVDGDGSIFACITPSQTHKFKHRLFLRFTVGQKTQRRWFLDKLVDEIGVGYVVDSGSVSEYRLSQIKPLHNFLTQLQPFLKLKQKQANLVLKIIEQLPSAKESPDKFLEVCTWVDQIAALNDSKTRKTTSETVRAVLDSLSEKKKSSP
[2]
  TGFBR2 knockout frequency, percent of cells in the culture: 38.6%
